Assay results from US20230097573A1 (LG CHEM, published 2023).
Values belong to the binder of their own block, whether it stands above or below them.

What was measured:
[1] = target: T1, hFcRn with a His-tag (human, UniProt P55899 24-297; P61769 21-119); experiment: BLI (Octet), His-hFcRn on Ni-NTA biosensor, Affimer 40 nM, pH 6.0, 1:1 model
T1 construct: It may be the same product as m1; also called huFcRn (His tagged molecule, BPS); not shown: His-tag
Method: (§1) A BLI (Bio-Layer Interferometry)-based binding assay was performed for AFFIMER® screening in which the affinity to FcRn varies depending on the pH. hFcRn with a His-tag was fixed to a Ni-NTA biosensor. Thereafter, in the hFcRn and the AFFIMER® candidate group, Ni²⁺ not bound to the hFcRn was blocked using His-SQT-gly with a high concentration, in which reactivity is absent. Then, the AFFIMER® candidate group diluted to the same concentration was reacted with the hFcRn. All affimers were analyzed at pH 6.0 and pH 7.4, and KD was determined with a 1:1 binding model.

[2] = target: T1, hFcRn with a His-tag; experiment: BLI (Octet), His-hFcRn on Ni-NTA biosensor, Affimer 40 nM, pH 7.4
Method: as §1

[3] = target: T2, Hu FcRn (BPS Bioscience) (human, UniProt P55899 24-297; P61769 21-119); experiment: optimized ELISA on FcRn, pH 7.4
T2 construct: Bought recombinant protein coated on ELISA plates; also called human FcRn; human neonatal Fc receptor

[4] = target: T1, hFcRn with a His-tag; experiment: BLI (Octet), His-hFcRn on Ni-NTA biosensor, Affimer 40 nM, pH 6.0
Method: as §1

[5] = target: T1, hFcRn with a His-tag; experiment: BLI (Octet), His-hFcRn on Ni-NTA biosensor, Affimer 40 nM, pH 7.4, 1:1 model
Method: as §1

[6] = target: T2, Hu FcRn (BPS Bioscience); experiment: optimized ELISA on FcRn, pH 6
[7] = target: T2, Hu FcRn (BPS Bioscience); experiment: ELISA, huFcRn coated, purified Affimer, pH 6
Method: The binding of AFFIMER® to hu-FcRn was evaluated by enzyme linked immunosorbent assay (ELISA) in 384 well plate format. Hu FcRn (BPS Bioscience) was coated at 5 μg/ml on the plate in 40 mM MES, pH 6. Plates were washed 3 times with 100 ul of washing buffer (PBS, Tween 20 0.05%, pH 6) with a plate washer and saturated with Casein 5% (Sigma) in MES pH 6 for 60 minutes at room temperature (25±1° C.). Plates were washed as described previously. AFFIMER® and negative controls (mAb anti hFcRn (clone ADM31), negative controls) were then diluted in duplicate, and loaded on the plate for 90 minutes at room temperature (25±1° C.). Plates were washed 3 times as described previously. Biotinylated polyclonal antibody anti Cystatin (R&D Systems) was then diluted in dilution buffer (1% casein, 0.05% Tween 20, and 8 mM MES, pH 6) and incubated 60 minutes at room temperature (25±1° C.). Plates were washed 3 times as described previously and Streptavidin HRP (N200, Thermo-Fisher) was incubated for 30 minutes at room temperature (25±1° C.). Plates were washed and the substrate (TMB, Pierce Thermo-Scientific) was added in the plate for 8±1 minute. The reaction was stopped using an acidic solution and plates were read at 450-630 nm. The EC₅₀ was then calculated using the interpolated non-linear four-parameters standard curve (FIGS. 5A-5B and Table 5A).

[8] = target: T1, hFcRn with a His-tag; experiment: BLI (Octet); ratio of KD at pH 7.4 to KD at pH 6.0
Method: as §1

[9] = target: T2, Hu FcRn (BPS Bioscience); experiment: ELISA, huFcRn coated, pH 6
Method: The binding of AFFIMER® to Hu-FcRn was evaluated by enzyme linked immunosorbent assay (ELISA) in 384 well plate format. Hu FcRn (BPS Bioscience) was coated at 5 μg/ml on the plate in 40 mM MES, pH 6. Plates were washed 3 times with 100 μl of washing buffer (PBS, Tween 20 0.05%, pH 6) with a plate washer and saturated with Casein 5% (Sigma) in MES pH6 for 60 minutes at room temperature (25±1° C.). Plates were washed as described previously. AFFIMER® and negative controls (mAb anti hFcRn (clone ADM31), negative controls) were then diluted in duplicate, and loaded on the plate for 90 minutes at room temperature (25±1° C.). Plates were washed 3 times as described previously. Biotinylated polyclonal antibody anti Cystatin (R&D Systems) was then diluted in dilution Buffer (1% casein, 0.05% Tween 20, and 8 mM MES. It is in pH6) and incubated 60 minutes at room temperature (25±1° C.). Plates were washed 3 times as described previously and Streptavidin HRP (N200, thermo-Fisher) was incubated for 30 minutes at room temperature (25±1° C.). Plates were washed and the substrate (TMB, Pierce Thermo-Scientific) was added in the plate for 8±1 minute. The reaction was stopped using an acidic solution and plates were read at 450-630 nm. The EC50 was then calculated using the interpolated non-linear four-parameters standard curve (Table 4).

- Kd [1]: 16 nM
- Response [2]: 0.794
- EC50 [3]: 19700 nM
- Response [4]: 1.2
- Kd [5]: 65 nM
- EC50 [6]: 327 nM
B1: FcRn-18 (designed binder)
chain: MIPRGLSEAKPATPEIQEIVDKVKPQLEEKTNETYGKLEAVQYKTQVLAETPHERHKTSTNYYIKVRAGDNKYMHLKVFNGPKRWLKHHAHADRVLTGYQVDKNKDDELTGFHHHHHH
notes: AFFIMER (stefin A variant)

- EC50 [7]: 187 nM
B2: FcRn-125 (designed binder)
chain: MIPRGLSEAKPATPEIQEIVDKVKPQLEEKTNETYGKLEAVQYKTQVLADHRPRHPKHSTNYYIKVRAGDNKYMHLKVFNGPAHKHHLGFKADRVLTGYQVDKNKDDELTGFHHHHHH
notes: AFFIMER (stefin A variant)

- Kd [1]: 8.76 nM
- pH 7.4/pH 6.0 (KD ratio) [8]: 6.8
- Response [2]: 0.803
- EC50 [3]: 79900 nM
- Response [4]: 1.44
- Kd [5]: 59.3 nM
- EC50 [6]: 1500 nM
B6: FcRn-48 (designed binder)
chain: MIPRGLSEAKPATPEIQEIVDKVKPQLEEKTNETYGKLEAVQYKTQVLAKPKYHHHDISTNYYIKVRAGDNKYMHLKVFNGPGHHAKPHRWADRVLTGYQVDKNKDDELTGFHHHHHH
notes: AFFIMER (stefin A variant)

- Kd [1]: 18.7 nM
- pH 7.4/pH 6.0 (KD ratio) [8]: 4.4
- Response [2]: 0.71
- EC50 [3]: 23300 nM
- Response [4]: 1.12
- Kd [5]: 82.8 nM
- EC50 [6]: 967 nM
B7: FcRn-88 (designed binder)
chain: MIPRGLSEAKPATPEIQEIVDKVKPQLEEKTNETYGKLEAVQYKTQVLAHHTKHHSRWSTNYYIKVRAGDNKYMHLKVFNGPVNHISHAPIADRVLTGYQVDKNKDDELTGFHHHHHH
notes: AFFIMER (stefin A variant)

- Kd [1]: 10.5 nM
- pH 7.4/pH 6.0 (KD ratio) [8]: 5.5
- Response [2]: 0.595
- EC50 [3]: 78900 nM
- Response [4]: 1.02
- Kd [5]: 57.9 nM
- EC50 [6]: 4480 nM
B8: FcRn-176 (designed binder)
chain: MIPRGLSEAKPATPEIQEIVDKVKPQLEEKTNETYGKLEAVQYKTQVLAGRHHESHKSSTNYYIKVRAGDNKYMHLKVFNGPFQHKLHKHHADRVLTGYQVDKNKDDELTGFHHHHHH
notes: AFFIMER (stefin A variant)

- Kd [1]: 9.27 nM
- pH 7.4/pH 6.0 (KD ratio) [8]: 6.6
- Response [2]: 0.602
- EC50 [3]: 15700 nM
- Response [4]: 1.16
- Kd [5]: 61.2 nM
- EC50 [6]: 570 nM
B10: FcRn-109 (designed binder)
chain: MIPRGLSEAKPATPEIQEIVDKVKPQLEEKTNETYGKLEAVQYKTQVLARPHNRDSHRSTNYYIKVRAGDNKYMHLKVFNGPDRKHRKHWHADRVLTGYQVDKNKDDELTGFHHHHHH
notes: AFFIMER (stefin A variant)

The remaining lines, values behind:

B3: FcRn-12 (designed binder)
chain: MIPRGLSEAKPATPEIQEIVDKVKPQLEEKTNETYGKLEAVQYKTQVLAKVKTHDHQRSTNYYIKVRAGDNKYMHLKVFNGPIHQHHSQDWADRVLTGYQVDKNKDDELTGFHHHHHH
notes: AFFIMER (stefin A variant)
- Kd [1]: 28.4 nM
- pH 7.4/pH 6.0 (KD ratio) [8]: 4.3
- Response [2]: 0.582
- EC50 [3]: 15700 nM
- Response [4]: 0.836
- Kd [5]: 123 nM
- EC50 [6]: 262 nM

B4: FcRn-15 (designed binder)
chain: MIPRGLSEAKPATPEIQEIVDKVKPQLEEKTNETYGKLEAVQYKTQVLAHNHRHYSKGSTNYYIKVRAGDNKYMHLKVFNGPAFNDGAVFIADRVLTGYQVDKNKDDELTGFHHHHHH
notes: also called LGC01-15
- EC50 [9]: 74.1 nM

B5: FcRn-120 (designed binder)
chain: MIPRGLSEAKPATPEIQEIVDKVKPQLEEKTNETYGKLEAVQYKTQVLAKHKYHHTGHSTNYYIKVRAGDNKYMHLKVFNGPGQIHKVRSTADRVLTGYQVDKNKDDELTGFHHHHHH
notes: AFFIMER (stefin A variant)
- EC50 [7]: 50.5 nM

B9: FcRn-16 (designed binder)
chain: MIPRGLSEAKPATPEIQEIVDKVKPQLEEKTNETYGKLEAVQYKTQVLAKHHHHKHQHSTNYYIKVRAGDNKYMHLKVFNGPVFLHNESHQADRVLTGYQVDKNKDDELTGFHHHHHH
notes: AFFIMER (stefin A variant)
- Kd [1]: 20.5 nM
- Response [2]: 0.631
- EC50 [3]: 48600 nM
- Response [4]: 1.07
- Kd [5]: 83.3 nM
- EC50 [6]: 1020 nM
